In this test the target is Myeloid-associated differentiation marker (human) (human (endogenous in blood eosinophils of asthmatic volunteers)) (UniProt Q96S97).
Sequence of UniProt Q96S97 (Q96S97 whole entry): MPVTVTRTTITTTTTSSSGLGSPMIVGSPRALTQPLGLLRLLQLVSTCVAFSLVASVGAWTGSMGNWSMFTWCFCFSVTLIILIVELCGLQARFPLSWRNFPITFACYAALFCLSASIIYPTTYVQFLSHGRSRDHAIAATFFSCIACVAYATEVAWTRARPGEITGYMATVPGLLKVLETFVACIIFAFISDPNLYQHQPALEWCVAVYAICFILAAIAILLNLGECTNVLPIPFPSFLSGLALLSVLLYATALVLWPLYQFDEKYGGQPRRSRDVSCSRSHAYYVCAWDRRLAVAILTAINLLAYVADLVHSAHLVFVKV

Take “Surfactant protein A (SP-A), preparation genotyped as homozygous for Q (Q/Q) at position 223 of SP-A2 (from UniProt Q8IWL2 21-248; Q8IWL1 21-248) (complex)”: the percent change in apoptotic human eosinophils (Siglec-8+, Annexin V/PI, flow cytometry, 16 h with SP-A) with pre-treatment using anti-MYADM (Invitrogen PA1-41578) compared to SP-A only came to 22.5%.
